The values below come from patent US20230060388A1 (SHANGHAI HENLIUS BIOTECH, published 2023).

Assay [1] concerns the target T1, recombinant human TIGIT extracellular domain (ECD) (human, UniProt Q495A1 22-138).
T1 construct: also called h-TIGIT ECD; recombinant human TIGIT ECD
T1 sequence: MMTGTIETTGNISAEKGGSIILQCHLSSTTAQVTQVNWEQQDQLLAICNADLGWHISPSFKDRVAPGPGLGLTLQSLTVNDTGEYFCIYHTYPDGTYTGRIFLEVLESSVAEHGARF
The assay can be described thus: ELISA, VHH supernatant on h-TIGIT ECD coated plates. On the procedure: The VHH antibody genes were amplified by PCR under protocols know in the art, purified by DNA agarose gel, constructed into a phagemid vector pADL-23c (Antibody Design Labs) and transformed to TG1 electrocompetent cells (from Lucigen). Transformed TG1 cells were cultured in Y2T medium. […] Phages in supernatants of culture were harvested by centrifugation, and panning of binders to human-TIGIT (h-TIGIT) or cynomolgus-TIGIT (cyno-TIGIT) antigen was performed using streptavidin-coupled Dynabeads coated with biotinylated h-TIGIT or cyno-TIGIT ECD. After 3 rounds of panning, binders of h-TIGIT or cyno-TIGIT were eluted, which were used to infect SS320 cells. Colonies of SS320 cells were picked and cultured in Y2T medium, and IPTG was added for secretion of VHH antibodies. Supernatants with VHH antibodies were screened by ELISA assays using h-TIGIT ECD coated plates. Positive h-TIGIT binders were picked for sequencing. 29 clones with different sequences were selected. Binding ability of VHH antibodies on cyno-TIGIT was also examined by ELISA. The top 21 binders and their CDRs and VHs are shown in the Sequence Table (SEQ ID NOS: 1-84).

Assay [2] has as its target T1, recombinant human TIGIT extracellular …. The assay can be described thus: blocking ELISA, competitor PVR. As for the experimental part: The effects of VHH antibody clones on blocking Poliovirus Receptor (PVR, a.k.a. CD155) binding to TIGIT were also determined using blocking ELISA assay.
Assay [3] has the same target. The assay is described as follows: PVR blocking ELISA (blocked ligand: PVR), IC50 plotted against the whole cell binding EC50.
In assay [4] the target is T2, human TIGIT expressed on cells (stably transfected Jurkat cells) (human, UniProt Q495A1 22-244).
T2 construct: Also used here for TIGIT on primary T cells in the MLR; also called h-TIGIT; T cell immunoreceptor with Ig and ITIM domains
T2 sequence: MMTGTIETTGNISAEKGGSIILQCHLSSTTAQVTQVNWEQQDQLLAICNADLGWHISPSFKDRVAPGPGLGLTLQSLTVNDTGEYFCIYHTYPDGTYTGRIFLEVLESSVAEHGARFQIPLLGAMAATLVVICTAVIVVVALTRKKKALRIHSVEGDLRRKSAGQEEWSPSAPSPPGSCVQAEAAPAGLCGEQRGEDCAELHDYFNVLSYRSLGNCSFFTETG
The assay is described as follows: whole cell binding to h-TIGIT stable cells, EC50 plotted against the blocking ELISA IC50.

Positions count from the first letter of the chain named. Bounds are passed on as bounds.

B1: 4C5 VHH (VHH)
VHH: QVQLVDSGGGLVQAGGSLRLSCAVSGRSVSTYFVGWFRQAPGKEREFVAAIDRGSTVTRYDDSVKGRFTISRDNAKDTVYLQMNSLKPEDTAVYYCAAKAITRNFIATNDYDYWGQGTQVTVSS
notes: VHH in E. coli supernatant
In the case of B1, in assay [1], the binding result was “binds”.

B2: 4H6 VHH (VHH)
VHH: QVQLVESGGGLATAGASLILSCAASGTIFRLNRMGWFRQAPGKERERVAATIWSGRRTHYADSVKGRFTISTDNAKKTVYLRMSSLKPEDTAVYYCNYRRITPWEASGNYWGQGTQVTVSS
notes: VHH in E. coli supernatant
On to B2, for which, in assay [1], the binding result is given as “binds”.

B3: 4B5 VHH (VHH)
VHH: QVKLEESGGRSVLAGGSLRLRCAGTPRTFSTFHIGWFRQAPGKEREFVAAFNWSGGRTYYADSVKGRFTISRNNGKNMVYLQMTSLTPEDTGLYYCAAARDRGLHDGTTSDSYLEGSHEYEYWGQGTQVTVSS
notes: VHH in E. coli supernatant
B3: in assay [1], the binding result is “binds”.

B4: 3H7 VHH (VHH)
VHH: QVKLEESGGGLVQAGGSLRLSCAASGSILSAGVMRWYRQAPGKQRELVASIALDGSTGYYIDSVKGRFTISRDNAKNIVYLDMRSLEPADTAVYLCNANIRTDMRSAPFDHWGHGTQVTVSS
notes: VHH in E. coli supernatant
For B4, the binding result in assay [1] was “binds”.

B5: 4A11 VHH (VHH)
VHH: QVKLEESGGGEAQPGGSLRLSCTASGRPFSNYTMGWFRRAPGKEREFVGLAWPSPSTYVVDSVKGRFTISRDNAKNTIYLQMNSLKPEDTAIYYCAADYKSLTQSWLNAALDYWGQGTQVTVSS
notes: VHH in E. coli supernatant
Consider B5, for which the binding result in assay [1] is “binds”.

B6: 3G7 VHH (VHH)
VHH: B5 VHH with K3Q, E5V, E11L, A12V, P14A, G16D, T23E, P28T, F29L, N31T
notes: VHH in E. coli supernatant
Regarding B6, in assay [2], the “inhibition of PVR binding to h-TIGIT” value was over 90%.

B7: 4H9 VHH (VHH)
VHH: QVQLVESGGGAVQAGGSLRLSCTASGPIARSRSTGMGWFRQGPGKERESVAAISSDGRFTYYAASVKGRFTISKDNAKSAAFLQMNSLKPEDTAVYYCAARDSGSGYYSRAQWYDYWGQGTQVTVSS
notes: VHH in E. coli supernatant
On to B7, for which the binding result in assay [1] was “binds”.

B8: 13H11 VHH (VHH)
VHH: QVQLVESGGGLVQAGGSLRLSCAASGLTFSMYAMGWFRQGPGKERESVAAISSDGRFTYYAASVKGRFTISKDNAKSAAFLQMNSLKPEDTAVYYCAARDSGSGYYSRAQWYDYWGQGTQVTVSS
notes: VHH in E. coli supernatant
Regarding B8, the “inhibition of PVR binding to h-TIGIT” value in assay [2] was over 90%.

B9: 1G1 VHH (VHH)
VHH: B8 VHH with G16D, A23V, L27P, T28S, M31S, A33P, Q120L
notes: VHH in E. coli supernatant
Regarding B9, in assay [2], the “inhibition of PVR binding to h-TIGIT” value was over 90%.

B10: 4E5 VHH (VHH)
VHH: QVQLVDSGGGVVEVGASLTLSCETSGLTSSDIAVGWFRQGPGKERESVAAISSDGRFTYYAASVKGRFTISKDNAKSAAFLQMNSLKPEDTAVYYCAARDSGSGYYSRAQWYDYWGQGTQVTVSS
notes: VHH in E. coli supernatant
As to B10, in assay [1], the binding result is recorded as “binds”.

B11: 2B7 VHH (VHH)
VHH: B8 VHH with S21A, L27R, M31S, A33P
notes: VHH in E. coli supernatant
B11: in assay [2], the “inhibition of PVR binding to h-TIGIT” value is over 90%.

B12: 1A10 VHH (VHH)
VHH: QVQLVESGGGVVQPGRSLRLSCAASGNSFSSYPMGWFRQAPGKERESVAAISSDGRFSYYADSVKGRFTISRDNSKNTLYLQMNSLRAEDTAVYYCACRDSGSGYYSRAQWYDYWGQGTLVTVSS
Turning to B12, the binding result in assay [3] and in assay [4] was “binds” throughout.

B13: 5E8 VHH (VHH)
VHH: B12 VHH with N27P, I51Q, S58T, C98A
Take B13: the binding result in assay [3] and in assay [4] was “binds” each time.

B14: 6B11 VHH (VHH)
VHH: B12 VHH with N27P, S30P, D54R, S58T, C98A, A109L
Consider B14, for which the binding result in assay [3] and in assay [4] was “binds” each time.

B15: 1D11 VHH (VHH)
VHH: B12 VHH with N27P, Y32S, D54M, S58T, C98A
B15: the binding result in assay [3] and in assay [4] was “binds” each time.

B16: 6E9 VHH (VHH)
VHH: B12 VHH with N27P, F29R, R56K, S58T, C98A, Q110N
For B16, the binding result in assay [3] and in assay [4] was “binds” each time.

B17: 5B5 VHH (VHH)
VHH: B12 VHH with N27P, G55T, S58T, C98A, Y114R
For the molecule B17, the binding result in assay [3] and in assay [4] was “binds” throughout.

B18: 1C7 VHH (VHH)
VHH: B12 VHH with N27P, D54R, S58T, C98A, D100G
Turning to B18, the binding result in assay [3] and in assay [4] was “binds” throughout.

B19: 2A5 VHH (VHH)
VHH: B12 VHH with N27P, D54V, S58T, C98A, A109W
As for B19, the binding result in assay [3] and in assay [4] was “binds” throughout.

B20: 6D12 VHH (VHH)
VHH: B12 VHH with N27P, S31T, R56V, S58T, C98A, A109E
Regarding B20, the binding result in assay [3] and in assay [4] was “binds” in each case.

B21: 7B11 VHH (VHH)
VHH: B12 VHH with N27P, S30L, S31I, S58W, C98A, A109V
As for B21, the binding result in assay [3] and in assay [4] was “binds” each time.

B22: 6D8 VHH (VHH)
VHH: B12 VHH with N27P, Y32K, I51R, S58T, C98A, Y105R
Take B22: the binding result in assay [3] and in assay [4] was “binds” each time.

B23: 5G10 VHH (VHH)
VHH: B12 VHH with N27P, S28R, S58T, C98A, Y114G
Regarding B23, the binding result in assay [3] and in assay [4] was “binds” throughout.

B24: 2D5 VHH (VHH)
VHH: B12 VHH with N27P, Y32S, S53W, S58T, C98A, D113V
Regarding B24, the binding result in assay [3] and in assay [4] was “binds” throughout.

B25: 2A6 VHH (VHH)
VHH: B12 VHH with N27P, S31L, G55R, S58T, C98A
Regarding B25, the binding result in assay [3] and in assay [4] was “binds” each time.

B26: 2C5 VHH (VHH)
VHH: B12 VHH with N27P, S31T, D54Q, S58T, C98A
Regarding B26, the binding result in assay [3] and in assay [4] was “binds” each time.

B27: 12H7 VHH (VHH)
VHH: QVQLVDSGGGLVQAGGSLRLSCKVSGNFLSVSDMSWYRQAPGMERDVVATVTEHGRTTYTDSVKGRFTISRDNAEHTTYLEMNNLKPEDTAVYFCKASDVFTDAGAHEAVLIRDYWGQGTQVTVSS
notes: VHH in E. coli supernatant
Take B27: the binding result in assay [1] was “binds”.

B28: 4D11 VHH (VHH)
VHH: QVQLQESGGGLVQPGGSLRLSCAASGSISSINAMGWYRLAPGKHREFVADITNSGSTNYAASVKGRFNISRDNAKDTVYLQMNSLKFEDTAVYYCTARRSTWYISSGRGTQVTVSS
notes: VHH in E. coli supernatant
B28: the binding result in assay [1] is reported as “binds”.

B29: 4C6 VHH (VHH)
VHH: QVQLVESGGGLVQAGGSLRLACAASGRTFSSYPMGWFRQGPGKERESVAAISSDGRFTYYAASVKGRFTISKDNAKSAAFLQMNSLKPEDTAVYRCAVDPTGWGTIEADFRSWGQGTQVTVSS
notes: VHH in E. coli supernatant
With B29, the binding result in assay [1] is “binds”.

B30: 2B10 VHH (VHH)
VHH: QVKLEESGGGLVQTGDSLRLSCAASSRIFRRYAMGWFRQAPGKEREFVAAITWSGASTTYTDSVKGRFTISRDSAENTTYLQMTSLRPEDTAVYYCAADPWGSVIVGTAEYEYWGQGTLVTVSS
notes: VHH in E. coli supernatant
B30: the “inhibition of PVR binding to h-TIGIT” value in assay [2] is over 90%.
